# Measurements from article PMC10849721 (bioRxiv, 2024).
# B1: Kv5.1 (natural protein)
# chain: MDASAEQSLPEPGSQDSVAGEDIEIVVNVGGVRQVLYGDLLSQYPETRLAELINCLAGGYDTIFSLCDDYDPGKREFYFDRDPDAFKCVIEVYYFGEVHMKKGICPICFKNEMDFWKVDLKFLDDCCKSHLSEKREELEEIARRVQLILDDLGVDAAEGRWRRCQKCVWKFLEKPESSCPARVVAVLSFLLILVSSVVMCMGTIPELQVVDSEGNRVEHPTLENVETACIGWFTLEYLLRLFSSPNKLHFALSFMNIVDVLAILPFYVSLTLTHLGARMMELTNVQQAVQALRIMRIARIFKLARHSSGLQTLTYALKRSFKELGLLLMYLAVGIFVFSALGYTMEQSHPETLFKSIPQSFWWAIITMTTVGYGDIYPKTTLGKLNAAISFLCGVIAIALPIHPIINNFVRYYNKQRVLETAAKHELELMELNSSSAEGKPGGSRSDLDTLPPEPAAREGPSWGSRLKLSHSDTFIPLLTEEKHHRTRLQSCK
# B2: Kv2.2 (natural protein)
# chain: MAEKAPPGLNRKTSRSTLSLPPEPVDIIRSKTCSRRVKINVGGLNHEVLWRTLDRLPRTRLGKLRDCNTHESLLEVCDDYNLNENEYFFDRHPGAFTSILNFYRTGKLHMMEEMCALSFGQELDYWGIDEIYLESCCQARYHQKKEQMNEELRREAETMREREGEEFDNTCCPEKRKKLWDLLEKPNSSVAAKILAIVSILFIVLSTIALSLNTLPELQENDEFGQPSDNRKLAHVEAVCIAWFTMEYLLRFLSSPNKWKFFKGPLNVIDLLAILPYYVTIFLTESNKSVLQFQNVRRVVQIFRIMRILRILKLARHSTGLQSLGFTLRRSYNELGLLILFLAMGIMIFSSLVFFAEKDEDATKFTSIPASFWWATITMTTVGYGDIYPKTLLGKIVGGLCCIAGVLVIALPIPIIVNNFSEFYKEQKRQEKAIKRREALERAKRNGSIVSMNLKDAFARSMELIDVAVEKAGESANTKDSVDDNHLSPSRWKWARKALSETSSNKSYENKYQEVSQNDSHEHLNNTSSSSPQHLSAQKLEMLYNEITKTQPHSHPNPDCQEQPERPCVYEEEIEMEEVICPQEQLAVAQTEVIVDMKSTSSIDSFTSCATDFTETERSPLPPPSASHLQMKFPTDLPGTDEHQRARAPPFLTLSRDKGPAAREAAVDYAPIDITVNLDAGASHGPLQPDSASDSPKSSLKGSNPLKSRSLKVNFQENRASAPQTPPSTARPLPVTTADFPLTTPQHMSTILLEEALPQGQPPLLEADDSAHCQGPSKGFSPRFPKQKLFPFSSRERRSFTEIDTGEDEDFLDLQRSRPDKQADPSPNCLADKPGDARDSLREEGCVGSSSPQNTDHNCRQDIYQAVGEVKKDSSQEGYKMENHLFAPEIHSNPGDTGHCPTRETSM
# Assays:
# Kv2.2 = molecular target: B2; experiment: co-IP
# Kv5.1 = molecular target: B1; experiment: co-IP
"percent co-IPed, relative to the subunit's own IP (Kv2.2) [%]","percent co-IPed, relative to the subunit's own IP (Kv5.1) [%]",Binder
31,–,B1
–,7.4,B2
